Biological target: the molecule itself
Assay: crystal structure; PHA-E (9 mg/ml, 20 mM Tris-HCl pH 8.0, 100 mM NaCl) with 0.6 mM bisected glycan 2; crystals from 0.1 M sodium acetate pH 4.5, 25% PEG3,350, 20 °C; 3.0 Å

B1: phytohemagglutinin from Phaseolus vulgaris (PHA-E) (natural protein, UniProt P05088 22-275, looked up)
chain: ASQTSFSFQRFNETNLILQRDATVSSKGQLRLTNVNDNGEPTLSSLGRAFYSAPIQIWDNTTGAVAASPTSFTFNIDVPNNSGPADGLAFVLLPVGSQPKDKGGLLGLFNNYKYDSNAHTVAVEFDTLYNVHWDPKPRHIGIDVNSIKSIKTTTWDFVKGENAEVLITYDSSTKLLVASLVYPSLKTSFIVSDTVDLKSVLPEWVIVGFTATTGITKGNVETNDILSWSFASKLSDGTTSEALNLANFALNQIL
notes: erythroagglutinating phytohemagglutinin (PHA-E), legume lectin from Phaseolus vulgaris; 120 kDa as tetramer; Crystallised with bisected glycan 2; eight subunits in the asymmetric unit; also called E4-PHA; PHA-E lectin; source: purified from Phaseolus vulgaris; bought: J-Oil Mills
  stoichiometry N: 4

From article PMC4789653, “Atomic visualization of a flipped-back conformation of bisected glycans bound to specific lectins” (Scientific Reports, 2016)
